The values below come from PMC7190724, “Improved GPCR ligands from nanobody tethering” (Nature Communications, 2020).

The target of one test is T1, PTHR1GFP (Homo sapiens, UniProt Q03431).
T1 sequence (Q03431 27-593): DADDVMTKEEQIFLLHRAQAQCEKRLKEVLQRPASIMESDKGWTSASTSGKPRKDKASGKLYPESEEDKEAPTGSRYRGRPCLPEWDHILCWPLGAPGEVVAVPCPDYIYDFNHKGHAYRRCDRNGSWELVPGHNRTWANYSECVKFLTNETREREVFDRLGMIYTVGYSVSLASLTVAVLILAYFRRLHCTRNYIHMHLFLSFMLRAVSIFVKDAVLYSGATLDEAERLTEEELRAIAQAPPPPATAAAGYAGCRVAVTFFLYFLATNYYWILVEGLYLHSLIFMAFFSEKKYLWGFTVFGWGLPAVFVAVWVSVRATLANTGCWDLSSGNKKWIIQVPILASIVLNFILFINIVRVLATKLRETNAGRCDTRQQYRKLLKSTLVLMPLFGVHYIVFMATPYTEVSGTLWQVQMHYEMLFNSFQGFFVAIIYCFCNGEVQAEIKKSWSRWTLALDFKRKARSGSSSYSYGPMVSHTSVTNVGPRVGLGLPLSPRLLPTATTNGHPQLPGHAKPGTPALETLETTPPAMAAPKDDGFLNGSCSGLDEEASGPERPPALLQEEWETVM
The test can be described thus: Flow cytometry binding of VHH-Alexafluor647 to HEK293 expressing PTHR1GFP. The note with it: flow cytometry MFI, VHH-Alexafluor647, 1 h on ice; no plateau, estimate. The procedure: (§1) Suspensions of cells in PBS were stained for 1 h on ice in the presence of indicated concentrations of VHH probes functionalized with Alexafluor647. Cells were pelleted by centrifugation and washed with PBS prior to analysis by flow cytometry (BD Accuri C6). To select intact cells gating was performed on forward scatter/side scatter profiles for analysis (see Supplementary Fig. 4 for an example of the gating strategy). Data were analyzed using FlowJo version 7.6. The median fluorescent intensity (MFI) of stained cells was used to generate VHH binding dose response curves (Supplementary Fig. 4).
Supplementary Figure 1. […] HEK293 cell lines in suspension were incubated on ice with 100 nM VHH sortagged with Alexafluor647, pelleted by centrifugation, washed and analyzed. […]
PTHR1GFP. This weak staining is likely related to the inability of VHHGFP to tightly bind the pH-sensitive GFP variant known as pHluorin2 engrafted into the receptor(ref. 19, main text). c) HEK293 cells stably expressing PTHR1-GFP were treated with varied doses of the indicated peptides or conjugates and activation was assessed by measuring luminescence from a cAMP-activated luciferase variant. […]
Supplementary Figure 4. […] Cells were centrifuged, washed, and analyzed by flow cytometry via gating of intact cells (live gate) based on forward scatter/side scatter profiles (panel a). […]

Another test relates to PTHR1_6E. The test can be described thus: Flow cytometry binding of VHH-Alexafluor647 to HEK293 expressing PTHR1_6E. The arrangement: species or system human. The note with it: flow cytometry MFI, VHH-Alexafluor647, 1 h on ice. The procedure:
as §1
Supplementary Figure 4. Assessment of VHH binding to PTHR1 variants by flow cytometry. Cells dislodged from tissue culture plates using trypsinization were incubated with varied concentrations of VHHs sortagged with AlexaFluor647 on ice for 1 h. Cells were centrifuged, washed, and analyzed by flow cytometry via gating of intact cells (live gate) based on forward scatter/side scatter profiles (panel a). (b) Data points represent median fluorescent intensity values ( individual data points shown, n = 2 independent replicates per condition). Connecting curves are the result of fitting a sigmoidal dose - response model to the data points. Precise estimates for VHH PTHR binding cannot be provided since the […]
(§2) (1 picture or pasted object on this page, not shown here)
In general terms: Flow cytometry measures light scatter and fluorescence of single cells or particles in a stream.

The subject of another test is PTHR2. The experiment in a line: Flow cytometry binding of VHH-Alexafluor647 to HEK293 expressing PTHR2. Also noted: species or system human. The note with it: 100 nM VHH-Alexafluor647, on ice. How it is done: (§3) Fig. 3 Binding of VHHs to HEK293 cell lines stably transfected with PTHRs. a Analysis of VHH binding to PTHR1, PTHR2 and variants by flow cytometry. HEK293 cell lines in suspension were incubated on ice with 100 nM VHH sortagged with Alexafluor647, pelleted by centrifugation, washed and analyzed. Data for PTHR1-GFP is found in Supplementary Fig. 1. b Analysis of VHH binding with microscopy. Adherent HEK293 cells expressing human PTHR1 were stained on ice with 50 nM VHHPTHR-tetramethylrhodamine (TMR, red) and 30 nM PTH(1-20)-fluorescein (FAM, green) for 30 min. Following staining, cells were washed and treated with fixative in preparation for image acquisition either immediately after staining (0 min) or following a 15-min incubation in medium at room temperature (15 min). Nuclei (blue) were stained with DAPI. The scale bar (20 μm) is at the bottom left image and is applicable to each image in this panel. This experiment was repeated twice with similar results.
(§4) Suspensions of cells in PBS were stained for 1 h on ice in the presence of indicated concentrations of VHH probes functionalized with Alexafluor647. Cells were pelleted by centrifugation and washed with PBS prior to analysis by flow cytometry (BD Accuri C6). […] Data were analyzed using FlowJo version 7.6. […]

In a further test the test system is PTHR1. The experiment in a line: Flow cytometry binding to HEK293 expressing human PTHR1. As to conditions: flow cytometry MFI, VHH-Alexafluor647, 1 h on ice; no plateau, estimate.
Text: Cells were pelleted by centrifugation and washed with PBS prior to analysis by flow cytometry (BD Accuri C6).
Supplementary Figure 4. […] Cells
as §2

In the next test the test system is rat PTHR1 (rPTHR1). The test can be described thus: Flow cytometry binding of VHH-Alexafluor647 to HEK293 expressing rat PTHR1. As to conditions: 100 nM VHH-Alexafluor647, on ice. The procedure:
as §3, §4

B1: VHHPTHR: nanobody that recognizes PTHR1 itself, sequence from the literature (named 22A3) (antibody, V domains shown)
VH: EVQLVESGGGLVQAGGSLRLSCAASGNIFANNIMGWYRQPPGKEREFVAHVSHDGDSMYAVSVKGRFAISRKDATNLYLQMNSLKPEDTAIYFCRLLNIPTQGRMEGFWGQGTQVTVSS
Consider B1, for which the half-maximal staining concentration in the test with PTHR1GFP, in the test on PTHR1_6E and with PTHR1 was 100 to 200 nM in each case. For the same molecule, the “staining of cells” value in the test with PTHR2 is recorded as “binds to PTHR1 but not PTHR2”; in the test on rat PTHR1 (rPTHR1), “bound”.
